This is an account of results in PMC3079799 (Nature chemical biology, 2011).

In assay [1] the target is T1, parathyroid hormone receptor type 1 with GFP inserted in its N-terminus (^GFPPTHR) (UniProt Q03431 27-593).
T1 sequence: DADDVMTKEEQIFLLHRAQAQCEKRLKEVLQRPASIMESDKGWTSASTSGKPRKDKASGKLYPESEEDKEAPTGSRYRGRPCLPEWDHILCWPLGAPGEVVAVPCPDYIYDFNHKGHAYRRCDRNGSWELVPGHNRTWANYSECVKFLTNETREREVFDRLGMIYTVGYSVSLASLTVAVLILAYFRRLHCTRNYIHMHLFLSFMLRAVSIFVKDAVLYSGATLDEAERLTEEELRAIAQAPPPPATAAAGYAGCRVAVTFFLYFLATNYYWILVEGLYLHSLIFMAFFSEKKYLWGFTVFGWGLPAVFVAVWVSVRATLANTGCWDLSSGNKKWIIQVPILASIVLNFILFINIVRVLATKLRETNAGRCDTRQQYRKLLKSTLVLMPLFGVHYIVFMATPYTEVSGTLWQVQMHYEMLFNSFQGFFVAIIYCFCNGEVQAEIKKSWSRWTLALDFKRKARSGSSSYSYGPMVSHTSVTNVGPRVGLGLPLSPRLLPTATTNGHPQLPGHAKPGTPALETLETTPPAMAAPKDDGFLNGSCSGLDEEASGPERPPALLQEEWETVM
In words: FRAP.

Assay [2] addresses T1, parathyroid hormone receptor type 1 …. In words: FRAP. This is another data set of the same source.

B1: β-arrestin1 fused to tdTomato (β-arr1^tom) (natural protein)
chain: MGDKGTRVFKKASPNGKLTVYLGKRDFVDHIDLVDPVDGVVLVDPEYLKERRVYVTLTCAFRYGREDLDVLGLTFRKDLFVANVQSFPPAPEDKKPLTRLQERLIKKLGEHAYPFTFEIPPNLPCSVTLQPGPEDTGKACGVDYEVKAFCAENLEEKIHKRNSVRLVIRKVQYAPERPGPQPTAETTRQFLMSDKPLHLEASLDKEIYYHGEPISVNVHVTNNTNKTVKKIKISVRQYADICLFNTAQYKCPVAMEEADDTVAPSSTFCKVYTLTPFLANNREKRGLALDGKLKHEDTNLASSTLLREGANREILGIIVSYKVKVKLVVSRGGLLGDLASSDVAVELPFTLMHPKPKEEPPHREVPENETPVDTNLIELDTNDDDIVFEDFARQRLKGMKDDKEEEEDGTGSPQLNNR
Consider B1, for which the “half-life (t1/2) of fluorescence recovery (FRAP), after PTH(1-34)” value in assay [1] is 30 ± 2.5 s. Also, the “half-life (t1/2) of fluorescence recovery (FRAP), after M-PTH(1-28)” value in assay [2] was found to be 69 ± 4.5 s.
